This assay concerns the target T1, endogenously expressed σ1R of mouse brain cortex (mouse (endogenous in brain cortex)), O55242.
T1 chain: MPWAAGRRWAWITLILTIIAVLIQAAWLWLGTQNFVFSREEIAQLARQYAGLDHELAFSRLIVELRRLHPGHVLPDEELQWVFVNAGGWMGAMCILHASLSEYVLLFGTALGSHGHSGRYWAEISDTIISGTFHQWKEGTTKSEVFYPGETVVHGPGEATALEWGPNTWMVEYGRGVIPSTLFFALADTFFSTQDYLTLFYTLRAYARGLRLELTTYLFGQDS
Description: SDS-PAGE western blot without heat denaturation; mouse brain cortex homogenised in lysis buffer, samples kept on ice, same protocol as for the transfected cells. The conditions noted are these: remark: other sources report otherwise.

Drawing on publication PMC6930887, this text covers stoichiometry N for one molecule.

Values joined by “and” are separate entries in the source; they are usually repeats but may differ in a detail not shown here. Equal values may be shown once.

B1: endogenously expressed σ1R of mouse brain cortex, O55242 1-223 (receptor)
chain: MPWAAGRRWAWITLILTIIAVLIQAAWLWLGTQNFVFSREEIAQLARQYAGLDHELAFSRLIVELRRLHPGHVLPDEELQWVFVNAGGWMGAMCILHASLSEYVLLFGTALGSHGHSGRYWAEISDTIISGTFHQWKEGTTKSEVFYPGETVVHGPGEATALEWGPNTWMVEYGRGVIPSTLFFALADTFFSTQDYLTLFYTLRAYARGLRLELTTYLFGQDS
B1: the stoichiometry N was 2 and 4.
